From patent publication US8703708 (CINCINNATI CHILDREN S HOSPITAL MEDICAL CENTER, dated 2014)

Key:
[1] = target: T1, Lrp6 (endogenous, in mouse kidney) (mouse, UniProt O88572 20-1613); assay: Western blot for S-tag proteins in whole d5 post I/R kidney from mice treated with Dkk2-C2
T1 construct: whole, on cells; Endogenous receptor in whole d5 post I/R kidney or kidney cortex; also called Lipoprotein receptor like protein 6
Method: (§1) For detection of Dkk2-C2, western blots of 50μg of whole kidney protein lysate per lane were incubated with anti-S-tag antibodies (1:500, BD Biosciences) followed by secondary HRP conjugated antibodies. After detection and stripping blots were re-detected with anti-beta-actin (1:1000, Santa Cruz Biotechnology). The purified recombinant Dkk2C contained only one single band in SDS-PAGE.
(§2) This C2 recombinant form of Dkk2 was administered from d0 to WT mice that were uninjured or which had kidney injury. Kidneys were harvested on day 2 and day 7 after injury and assessed quantitatively for injury. […] After detection and stripping blots were re-detected with anti-beta-actin (1:1000, Santa Cruz Biotechnology). […] When systemic delivery of Dkk2 was delayed until after peak injury at d1, it was nevertheless detectable in the kidney (FIG. 5G) and it retained the capacity to improve kidney function as assessed by plasma creatinine levels (FIG. 5D). […] To understand whether Dkk2 was functioning to augment the canonical pathway, Wnt signalling in kidney cortex of d5 post I/R mice was assessed by detection of phosphorylated Lrp6 since canonical signalling requires phosphorylation of this co-receptor (Zeng et al., Nature 438(7069):873-877 (in eng) (2005)) (FIG. 5E). pLrp6 was not detected in healthy adult kidney cortex (FIG. 1G) but was robustly detected in kidney cortex following injury.

[2] = target: T2, Lrp5 (endogenous, in mouse kidney) (mouse, UniProt Q91VN0 31-1614); assay: as above
T2 construct: whole, on cells; Endogenous receptor in whole d5 post I/R kidney; The complex was detected in kidney lysate by Western blot; also called Lipoprotein receptor like protein 5
Method: as §1, §2

T2 sequence (Q91VN0 31-1614): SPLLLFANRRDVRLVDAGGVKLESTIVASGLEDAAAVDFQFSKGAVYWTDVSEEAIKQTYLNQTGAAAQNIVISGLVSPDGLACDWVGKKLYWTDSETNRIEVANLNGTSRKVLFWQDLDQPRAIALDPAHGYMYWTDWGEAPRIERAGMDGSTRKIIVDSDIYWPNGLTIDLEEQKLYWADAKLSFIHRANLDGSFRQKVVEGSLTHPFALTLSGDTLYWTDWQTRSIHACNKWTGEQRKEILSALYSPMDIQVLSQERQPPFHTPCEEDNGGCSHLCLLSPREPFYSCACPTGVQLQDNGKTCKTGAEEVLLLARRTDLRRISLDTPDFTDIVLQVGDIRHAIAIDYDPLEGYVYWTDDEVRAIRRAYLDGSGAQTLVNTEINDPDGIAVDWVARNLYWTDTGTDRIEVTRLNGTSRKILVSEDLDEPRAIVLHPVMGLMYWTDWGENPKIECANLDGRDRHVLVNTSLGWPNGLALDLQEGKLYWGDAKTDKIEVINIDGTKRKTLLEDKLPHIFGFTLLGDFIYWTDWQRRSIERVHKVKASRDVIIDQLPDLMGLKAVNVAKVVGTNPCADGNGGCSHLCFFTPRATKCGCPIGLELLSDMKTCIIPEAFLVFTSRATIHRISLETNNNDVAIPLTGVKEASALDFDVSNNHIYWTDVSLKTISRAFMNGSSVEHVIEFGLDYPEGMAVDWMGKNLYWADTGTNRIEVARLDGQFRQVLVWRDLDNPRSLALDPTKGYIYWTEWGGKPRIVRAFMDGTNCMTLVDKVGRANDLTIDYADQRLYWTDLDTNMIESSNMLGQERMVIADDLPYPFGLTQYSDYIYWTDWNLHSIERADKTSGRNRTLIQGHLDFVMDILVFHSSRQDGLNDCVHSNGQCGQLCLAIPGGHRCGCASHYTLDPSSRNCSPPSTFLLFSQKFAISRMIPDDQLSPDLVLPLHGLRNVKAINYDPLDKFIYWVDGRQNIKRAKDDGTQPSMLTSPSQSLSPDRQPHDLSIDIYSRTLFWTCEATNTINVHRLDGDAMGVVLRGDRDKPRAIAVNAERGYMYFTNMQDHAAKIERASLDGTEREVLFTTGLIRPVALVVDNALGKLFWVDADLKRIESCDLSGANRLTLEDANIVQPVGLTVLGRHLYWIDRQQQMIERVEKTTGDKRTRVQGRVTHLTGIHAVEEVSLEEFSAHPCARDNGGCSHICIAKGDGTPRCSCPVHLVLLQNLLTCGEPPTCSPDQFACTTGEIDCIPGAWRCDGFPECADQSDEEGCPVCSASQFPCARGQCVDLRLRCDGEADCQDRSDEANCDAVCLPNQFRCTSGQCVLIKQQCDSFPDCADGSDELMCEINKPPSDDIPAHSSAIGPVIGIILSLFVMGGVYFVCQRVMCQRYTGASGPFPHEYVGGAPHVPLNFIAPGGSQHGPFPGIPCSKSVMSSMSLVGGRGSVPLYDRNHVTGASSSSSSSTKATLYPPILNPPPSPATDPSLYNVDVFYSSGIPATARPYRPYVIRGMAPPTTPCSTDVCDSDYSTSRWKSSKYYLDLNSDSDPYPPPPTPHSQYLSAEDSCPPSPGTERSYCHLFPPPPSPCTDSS
T1 sequence (O88572 20-1613): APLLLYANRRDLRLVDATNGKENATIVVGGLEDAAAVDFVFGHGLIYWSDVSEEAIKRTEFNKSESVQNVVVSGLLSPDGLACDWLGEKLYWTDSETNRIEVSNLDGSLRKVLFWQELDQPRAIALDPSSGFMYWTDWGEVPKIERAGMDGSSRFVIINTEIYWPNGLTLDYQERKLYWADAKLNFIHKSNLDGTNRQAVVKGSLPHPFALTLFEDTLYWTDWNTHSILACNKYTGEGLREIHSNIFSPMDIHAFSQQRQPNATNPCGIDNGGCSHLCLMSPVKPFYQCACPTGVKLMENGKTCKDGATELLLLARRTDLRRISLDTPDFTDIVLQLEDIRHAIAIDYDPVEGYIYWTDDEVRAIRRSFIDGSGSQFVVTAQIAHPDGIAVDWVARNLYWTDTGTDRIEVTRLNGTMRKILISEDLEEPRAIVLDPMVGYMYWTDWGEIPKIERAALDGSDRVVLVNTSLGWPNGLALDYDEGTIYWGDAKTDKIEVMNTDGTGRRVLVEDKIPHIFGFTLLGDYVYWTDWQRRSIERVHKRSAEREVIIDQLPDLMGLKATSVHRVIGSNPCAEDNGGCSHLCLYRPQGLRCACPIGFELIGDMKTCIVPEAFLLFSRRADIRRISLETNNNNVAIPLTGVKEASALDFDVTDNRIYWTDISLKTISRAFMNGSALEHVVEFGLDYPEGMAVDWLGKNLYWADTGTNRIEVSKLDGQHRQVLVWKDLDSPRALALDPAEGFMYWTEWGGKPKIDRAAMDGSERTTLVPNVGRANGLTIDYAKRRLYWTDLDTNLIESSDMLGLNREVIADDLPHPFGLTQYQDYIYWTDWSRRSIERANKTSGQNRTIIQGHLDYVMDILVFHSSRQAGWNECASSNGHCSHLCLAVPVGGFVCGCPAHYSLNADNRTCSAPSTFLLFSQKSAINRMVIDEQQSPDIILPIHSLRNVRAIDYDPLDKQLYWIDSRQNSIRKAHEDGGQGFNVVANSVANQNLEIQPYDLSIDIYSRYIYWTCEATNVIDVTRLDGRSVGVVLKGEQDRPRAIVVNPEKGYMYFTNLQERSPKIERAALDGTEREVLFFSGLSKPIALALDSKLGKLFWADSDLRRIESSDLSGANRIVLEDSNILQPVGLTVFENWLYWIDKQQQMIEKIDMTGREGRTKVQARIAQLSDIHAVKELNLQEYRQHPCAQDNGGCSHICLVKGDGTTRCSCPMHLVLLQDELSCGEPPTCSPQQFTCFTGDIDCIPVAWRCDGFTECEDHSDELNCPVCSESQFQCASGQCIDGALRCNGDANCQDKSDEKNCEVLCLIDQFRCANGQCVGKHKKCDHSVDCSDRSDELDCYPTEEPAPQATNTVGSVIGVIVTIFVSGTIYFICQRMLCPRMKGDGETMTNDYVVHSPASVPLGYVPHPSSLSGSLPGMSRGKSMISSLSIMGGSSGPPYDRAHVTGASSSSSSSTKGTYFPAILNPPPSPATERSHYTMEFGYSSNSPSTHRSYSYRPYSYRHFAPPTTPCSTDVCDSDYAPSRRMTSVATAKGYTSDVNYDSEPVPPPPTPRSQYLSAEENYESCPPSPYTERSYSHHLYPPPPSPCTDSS

binding result [1]: binds
binding result [2]: binds
B1: recombinant protein Dkk2C (amino acids Met172-Ile259 of mouse Dkk2) with N-terminal S tag and thrombin cleavage site (ligand)
chain: MPHIKGHEGDPCLRSSDCIDGFCCARHFWTKICKPVLHQGEVCTKQRKKGSHGLEIFQRCDCAKGLSCKVWKDATYSSKARLHVCQKI
notes: Expressed in E. coli; Detected in kidney lysate with anti-S-tag antibodies, so the S tag was still on the protein; also called Dkk2-C2; D2C2; not shown: N-terminal S tag; thrombin cleavage site between the S tag and Dkk2C
